The target of the data set is T1, p53-382 acetylated peptide substrate ('Fluor de Lys-SIRT1', BIOMOL) (not fully specified).
T1 chain: RHKK

B1: recombinant human SIRT1 (His6-tagged) (protein)
chain: MADEAALALQPGGSPSAAGADREAASSPAGEPLRKRPRRDGPGLERSPGEPGGAAPEREVPAAARGCPGAAAAALWREAEAEAAAAGGEQEAQATAAAGEGDNGPGLQGPSREPPLADNLYDEDDDDEGEEEEEAAAAAIGYRDNLLFGDEIITNGFHSCESDEEDRASHASSSDWTPRPRIGPYTFVQQHLMIGTDPRTILKDLLPETIPPPELDDMTLWQIVINILSEPPKRKKRKDINTIEDAVKLLQECKKIIVLTGAGVSVSCGIPDFRSRDGIYARLAVDFPDLPDPQAMFDIEYFRKDPRPFFKFAKEIYPGQFQPSLCHKFIALSDKEGKLLRNYTQNIDTLEQVAGIQRIIQCHGSFATASCLICKYKVDCEAVRGDIFNQVVPRCPRCPADEPLAIMKPEIVFFGENLPEQFHRAMKYDKDEVDLLIVIGSSLKVRPVALIPSSIPHEVPQILINREPLPHLHFDVELLGDCDVIINELCHRLGGEYAKLCCNPVKLSEITEKPPRTQKELAYLSELPPTPLHVSEDSSSPERTSPPDSSVIVTLLDQAAKSNDDLDVSESKGCMEEKPQEVQTSRNVESIAEQMENPDLKNVGSSTGEKNERTSVAGTVRKCWPNRVAKEQISRRLDGNQYLFLPPNRYIFHGAEVYSDSEDDVLSSSSCGSNSDSGTCQSPSLEEPMEDESEIEEFYNGLEDEPDVPERAGGAGFGTDGDDQEAINEAISVKQEVTDMNYPSNKS
Regarding B1, the “Km for p53-382 acetylated peptide (SIRT1 initial rate at 3 mM NAD+, control, no resveratrol)” value is on record as “Km(control, ν)=64 µM”; the “Km for p53-382 acetylated peptide (SIRT1 initial rate at 3 mM NAD+, with 100 µM resveratrol)” value was “Km (+resveratrol, Δ)=1.8 µM”; the “fold decrease of the acetylated peptide Km caused by 100 µM resveratrol” value was “Its effect on the acetylated peptide Km was particularly striking, amounting to a 35-fold decrease”.

For the origin of these results see patent US20060025337.
